Holding throughout (experiment): cell-based or functional assay
Experiment [1] has as its target T1, human CCK-B receptor (human, UniProt P32239 1-447).
T1 sequence (looked up): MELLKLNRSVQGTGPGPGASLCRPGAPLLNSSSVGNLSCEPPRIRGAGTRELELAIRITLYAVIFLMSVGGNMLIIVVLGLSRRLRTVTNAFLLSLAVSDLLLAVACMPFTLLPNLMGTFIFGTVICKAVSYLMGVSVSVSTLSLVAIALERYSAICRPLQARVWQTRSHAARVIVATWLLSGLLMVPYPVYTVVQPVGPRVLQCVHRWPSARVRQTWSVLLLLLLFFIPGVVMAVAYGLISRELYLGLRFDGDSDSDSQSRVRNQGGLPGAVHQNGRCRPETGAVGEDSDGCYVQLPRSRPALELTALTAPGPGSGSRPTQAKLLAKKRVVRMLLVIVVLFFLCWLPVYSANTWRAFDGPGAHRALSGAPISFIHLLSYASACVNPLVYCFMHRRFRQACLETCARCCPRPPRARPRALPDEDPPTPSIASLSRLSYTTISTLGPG

In experiment [2] the target is T2, human GLP-1 receptor (human, UniProt P43220 24-463).
Target sequence in this assay (P43220 24-463): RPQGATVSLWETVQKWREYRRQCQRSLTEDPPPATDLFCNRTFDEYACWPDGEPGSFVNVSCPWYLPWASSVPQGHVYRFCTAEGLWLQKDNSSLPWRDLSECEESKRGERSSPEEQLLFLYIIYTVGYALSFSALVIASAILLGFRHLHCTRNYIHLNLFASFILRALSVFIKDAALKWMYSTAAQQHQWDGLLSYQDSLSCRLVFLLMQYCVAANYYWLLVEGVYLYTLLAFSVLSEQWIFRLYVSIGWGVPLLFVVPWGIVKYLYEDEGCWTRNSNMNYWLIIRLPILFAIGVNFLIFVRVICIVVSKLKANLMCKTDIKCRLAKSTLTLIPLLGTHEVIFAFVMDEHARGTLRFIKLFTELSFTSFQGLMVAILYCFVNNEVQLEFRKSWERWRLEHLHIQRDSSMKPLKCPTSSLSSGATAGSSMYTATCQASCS
Experiment [3] concerns the target T3, mouse CCK-B receptor (mouse, UniProt P56481 1-453).
T3 sequence (looked up): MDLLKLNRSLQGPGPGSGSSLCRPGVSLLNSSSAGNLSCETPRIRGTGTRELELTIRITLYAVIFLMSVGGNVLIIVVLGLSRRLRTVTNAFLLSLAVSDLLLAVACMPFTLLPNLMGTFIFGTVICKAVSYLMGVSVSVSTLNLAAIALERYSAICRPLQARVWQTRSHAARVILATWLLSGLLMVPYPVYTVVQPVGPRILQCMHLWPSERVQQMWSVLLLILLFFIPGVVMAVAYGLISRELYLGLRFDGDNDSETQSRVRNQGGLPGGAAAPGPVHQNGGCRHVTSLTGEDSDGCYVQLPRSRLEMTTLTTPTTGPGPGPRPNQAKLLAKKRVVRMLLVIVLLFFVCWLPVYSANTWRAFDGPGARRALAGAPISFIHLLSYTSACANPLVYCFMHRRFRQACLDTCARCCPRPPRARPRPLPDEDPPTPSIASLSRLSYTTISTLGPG

In experiment [4] the target is T3, mouse CCK-B receptor. This is another data set of the same source.
Experiment [5] deals with T1, human CCK-B receptor. This is another data set of the same source.
In experiment [6] the target is T2, human GLP-1 receptor. This is another data set of the same source.
Target sequence in this assay (P43220 24-463): as the sequence (P43220 24-463) above
Experiment [7] addresses T2, human GLP-1 receptor. The source holds these as a separate data set.
Experiment [8] addresses T1, human CCK-B receptor. The source holds these as a separate data set.

Like-named read-outs stand apart in the source and are kept apart here. Bridge positions count the residues as written; N and C are the ends. Square brackets hold non-standard residues; d marks the D form. Ends that are not written are not given here.

For “[Arg34]GLP-1(7-37)-Peg3-Peg3-[Leu4]Gastrin6 (peptide)”, the hCCK-B R EC50 (p-ERK) in the experiment with human CCK-B receptor [1] was found to be 24 nM.
“[Aib8,Arg34]GLP-1(7-37)-Peg3-Peg3-[Leu4]Gastrin6 (peptide)” returned a hGLP-1 R EC50 (cAMP) with human GLP-1 receptor [2] of 0.043 nM. Besides, in the experiment with human CCK-B receptor [1], the hCCK-B R EC50 (p-ERK) was 42 nM.
As for “GLP-1(7-36)-Peg3-Peg3-[Gln1,Leu15]Gastrin17 (peptide)”, the mCCK-B R EC50 (p-ERK) with mouse CCK-B receptor [3] came to 58.3 nM; in the experiment with mouse CCK-B receptor [4] it was 58 nM. The same molecule came in with a hCCK-B R EC50 (p-ERK) with human CCK-B receptor [1] of 8.2 nM.
Consider “h[Leu15]Gastrin17 (from UniProt P01350 76-92) (peptide)”, for which the hCCK-B R EC50 (p-ERK) in the experiment with human CCK-B receptor [1] stood at 2.4 nM.
As for h[Gln1,Leu15]Gastrin17 (peptide), the mCCK-B R EC50 (p-ERK) with mouse CCK-B receptor [3] amounted to 18.2 nM; in the experiment with mouse CCK-B receptor [4], 18 nM.
As for “[Arg34,Lys(Hexadecanoyl-isoGlu)26]GLP-1(7-37)-Peg3-Peg3-[Leu4]Gastrin6 (peptide)”, the hCCK-B R EC50 (p-ERK) with human CCK-B receptor [1] amounted to 29 nM.
“GLP-1(7-36)-8Aoc-8Aoc-[Gln1,Leu15]Gastrin17 (peptide)”: the mCCK-B R EC50 (p-ERK) with mouse CCK-B receptor [3] is 71.4 nM; in the experiment with mouse CCK-B receptor [4], 71 nM. The hCCK-B R EC50 (p-ERK) with human CCK-B receptor [5] was 12.8 nM; in the experiment with human CCK-B receptor [1], 13 nM.
Consider “GLP-1(7-36)-Peg3-SKK-[Gln1,Leu15]Gastrin17 (peptide)”, for which the mCCK-B R EC50 (p-ERK) with mouse CCK-B receptor [3] stood at 51.1 nM; with mouse CCK-B receptor [4] it was 51 nM. Besides, the values for the hCCK-B R EC50 (p-ERK) in the experiment with human CCK-B receptor [5] and with human CCK-B receptor [1] were 8.76 nM and 8.8 nM, respectively.
“[Lys(Hexadecanoyl-isoGlu)34]GLP-1(7-37)-Peg3-Peg3-[Leu4]Gastrin6 (peptide)”: the hCCK-B R EC50 (p-ERK) with human CCK-B receptor [1] turned out to be 18 nM.
As for “GLP-1(7-36)-K-[Gln1,Leu15]Gastrin17 (peptide)”, the hGLP-1 R EC50 (cAMP) stood at 0.0842 nM in the experiment with human GLP-1 receptor [6] and 0.03 nM with human GLP-1 receptor [2]. Besides, the mCCK-B R EC50 (p-ERK) with mouse CCK-B receptor [3] amounted to 114 nM; with mouse CCK-B receptor [4] it was 110 nM. Besides, the hCCK-B R EC50 (p-ERK) with human CCK-B receptor [5] was 77.3 nM; with human CCK-B receptor [1] it was 77 nM.
Molecule “[Arg26,34,Lys(Hexadecanoyl-isoGlu)36]GLP-1(7-37)-Peg3-Peg3-[Leu4]Gastrin6 (peptide)” returned a hGLP-1 R EC50 (cAMP) with human GLP-1 receptor [2] of 0.11 nM. In the experiment with human CCK-B receptor [1], this molecule yielded a hCCK-B R EC50 (p-ERK) of 78 nM.
With “GLP-1(7-36)-SKK-[Gln1,Leu15]Gastrin17 (peptide)”, the hGLP-1 R EC50 (cAMP) with human GLP-1 receptor [6] is 0.116 nM; in the experiment with human GLP-1 receptor [2], 0.031 nM. Moreover, the mCCK-B R EC50 (p-ERK) in the experiment with mouse CCK-B receptor [3] is 58.6 nM; with mouse CCK-B receptor [4], 59 nM. Besides, the figures for the hCCK-B R EC50 (p-ERK) with human CCK-B receptor [5] and with human CCK-B receptor [1] were 15.6 nM and 16 nM, respectively.
Take “GLP-1(7-36)-AAA-[Gln1,Leu15]Gastrin17 (peptide)”: the hGLP-1 R EC50 (cAMP) is 0.114 nM with human GLP-1 receptor [6] and 0.034 nM with human GLP-1 receptor [2]. Further, the values for the mCCK-B R EC50 (p-ERK) in the experiment with mouse CCK-B receptor [3] and with mouse CCK-B receptor [4] were 54.1 nM and 54 nM, respectively. In addition, the hCCK-B R EC50 (p-ERK) amounted to 18.8 nM with human CCK-B receptor [5] and 19 nM in the experiment with human CCK-B receptor [1].
“[Arg26,34,Gly8,Lys(Hexadecanoyl-isoGlu)36]GLP-1(7-37)-Peg3-Peg3-[Leu4]Gastrin6 (peptide)” returned a hGLP-1 R EC50 (cAMP) in the experiment with human GLP-1 receptor [2] of 0.12 nM. The molecule also registered a hCCK-B R EC50 (p-ERK) with human CCK-B receptor [1] of 29 nM.
Consider “GLP-1(7-36)-8Aoc-SKK-[Gln1,Leu15]Gastrin17 (peptide)”, for which the mCCK-B R EC50 (p-ERK) in the experiment with mouse CCK-B receptor [3] came out at 82.5 nM; with mouse CCK-B receptor [4] it was 83 nM. In addition, the results for the hCCK-B R EC50 (p-ERK) in the experiment with human CCK-B receptor [5] and with human CCK-B receptor [1] were 51.9 nM and 52 nM, respectively.
For the molecule “[Aib8,Arg34,Lys(Hexadecanoyl-isoGlu)26]GLP-1(7-37)-Peg3-Peg3-[Leu4]Gastrin6 (peptide)”, in the experiment with human GLP-1 receptor [2], the hGLP-1 R EC50 (cAMP) worked out at 0.088 nM. In addition, in the experiment with human CCK-B receptor [1], the hCCK-B R EC50 (p-ERK) is 59 nM.
“[Lys(Hexadecanoyl-isoGlu)26]GLP-1(7-37)-Peg3-Peg3-[Leu4]Gastrin6 (peptide)”: the hCCK-B R EC50 (p-ERK) in the experiment with human CCK-B receptor [1] worked out at 26 nM.
For “CCK-8 (from UniProt P06307 96-103) (peptide)”, the mCCK-B R EC50 (p-ERK) in the experiment with mouse CCK-B receptor [3] was found to be 163 nM; with mouse CCK-B receptor [4], 160 nM.
In the case of “GLP-1(7-36)-DBF-SKK-[Gln1,Leu15]Gastrin17 (peptide)”, the mCCK-B R EC50 (p-ERK) with mouse CCK-B receptor [3] came out at 86.9 nM; with mouse CCK-B receptor [4], 87 nM. For the same molecule, the hCCK-B R EC50 (p-ERK) with human CCK-B receptor [5] amounted to 25.7 nM; with human CCK-B receptor [1], 26 nM.
In the case of “GLP-1(7-36)-[Gln1,Leu15]Gastrin17 (peptide)”, the hGLP-1 R EC50 (cAMP) was found to be 0.145 nM with human GLP-1 receptor [6] and 0.03 nM in the experiment with human GLP-1 receptor [2]. Besides, the mCCK-B R EC50 (p-ERK) is 73.1 nM with mouse CCK-B receptor [3] and 73 nM with mouse CCK-B receptor [4]. Besides, the hCCK-B R EC50 (p-ERK) turned out to be 25.9 nM with human CCK-B receptor [5] and 26 nM with human CCK-B receptor [1].
As for HGEGTFTSDLSKYMEEEAVRLFIEFLK[Peg3][Peg3]YGWLDF-NH2 [[Tyr13,Phe25]Exendin-4(1-27)-Peg3-Peg3-[Leu4]Gastrin6], the “hGLP-1 R EC50 (cAMP)” value in the experiment with human GLP-1 receptor [7] is 0.035 nM. Besides, the “hCCK-B R EC50 (p-ERK)” value with human CCK-B receptor [8] came to 8.4 nM.
Regarding HGEGTFTSDLSKQLEEEAVRLFIEFLKXXYGWLDF (Peg3-Peg3 linker; C-terminal amide) [[Leu14,Phe25]Exendin-4(1-27)-Peg3-Peg3-[Leu4]Gastrin6], the “hGLP-1 R EC50 (cAMP)” value with human GLP-1 receptor [7] was found to be 0.026 nM. Also, the “hCCK-B R EC50 (p-ERK)” value with human CCK-B receptor [8] was determined as 7.9 nM.
Consider HGEGTFTSDLSKQMEEEAVKLFIEWLKN[Peg3][Peg3]YGWLDF-NH2 (lactam 20-24) [Side chain-cyclo([Lys20,Glu24]Exendin-4(1-28)-Peg3-Peg3-[Leu4]Gastrin6], for which the “hGLP-1 R EC50 (cAMP)” value with human GLP-1 receptor [7] amounted to 0.032 nM. Besides, the “hCCK-B R EC50 (p-ERK)” value in the experiment with human CCK-B receptor [8] was found to be 4 nM.
For HGEGTFTSDLSKQMEKEAVRLFIEWLKN[Peg3][Peg3]YGWLDF-NH2 [[Lys16]Exendin-4(1-28)-Peg3-Peg3-[Leu4]Gastrin6], the “hGLP-1 R EC50 (cAMP)” value with human GLP-1 receptor [7] came out at 0.032 nM. In addition, the “hCCK-B R EC50 (p-ERK)” value in the experiment with human CCK-B receptor [8] amounted to 15 nM.
